How the values were obtained:
OiTyrA (OiTyrAa) = biological target: T1, OiTyrA (OiTyrAa) (Brucella intermedia, UniProt C4WNJ2); type: biochemical
T1 construct: gene OINT_2001142

[1] = tested on: T2, N[C@@H](CC1(C(=O)O)C=CC(O)C=C1)C(=O)O; assay: A340 reduced cofactor formation, Michaelis-Menten fit; type: biochemical, Methanothrix harundinacea; details: 0.8 mM preferred cofactor (NADP+), 25 mM HEPES pH 7.6, 50 mM KCl, 10% ethylene glycol
T2 construct: full-length, codon-optimized, N-terminal 6xHis tag (pET28a), E. coli Rosetta2 (DE3), HisTrap purified; monofunctional enzyme
Text: (§1) A340 reduced cofactor formation, Michaelis-Menten fit on MhTyrA (MhTyrAp)

[2] = tested on: T3, O=C(O)C(=O)CC1(C(=O)O)C=CC(O)C=C1; assay: as above; type: biochemical, Methanothrix harundinacea; details: 25 mM HEPES pH 7.6, 50 mM KCl, 10% ethylene glycol
T3 construct: full-length, codon-optimized, N-terminal 6xHis tag (pET28a), E. coli Rosetta2 (DE3), HisTrap purified; monofunctional enzyme
Text: as §1

[3] = substrate: N[C@@H](CC1(C(=O)O)C=CC(O)C=C1)C(=O)O; assay: as above; type: biochemical, Sediminispirochaeta smaragdinae; details: 25 mM HEPES pH 7.6, 50 mM KCl, 10% ethylene glycol
Text: (§2) A340 reduced cofactor formation, Michaelis-Menten fit on SsTyrA (SsTyrAa)

[4] = substrate: O=C(O)C(=O)CC1(C(=O)O)C=CC(O)C=C1; assay: as above; type: biochemical, Sediminispirochaeta smaragdinae; details: 0.8 mM preferred cofactor, 25 mM HEPES pH 7.6, 50 mM KCl, 10% ethylene glycol
Text: as §2

[5] = 0.8 mM preferred cofactor (NADP+)
[6] = 0.8 mM preferred cofactor (NAD+ slightly preferred)

T1 sequence (C4WNJ2 1-269 limits assumed): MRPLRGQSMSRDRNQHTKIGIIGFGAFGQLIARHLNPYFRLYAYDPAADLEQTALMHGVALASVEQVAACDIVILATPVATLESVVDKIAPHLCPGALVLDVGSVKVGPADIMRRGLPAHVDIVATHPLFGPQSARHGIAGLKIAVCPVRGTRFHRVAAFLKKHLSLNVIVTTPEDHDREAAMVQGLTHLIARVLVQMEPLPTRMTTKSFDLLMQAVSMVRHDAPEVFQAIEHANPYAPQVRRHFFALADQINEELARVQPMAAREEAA

NC(=O)c1ccc[n+]([C@@H]2O[C@H](COP(=O)(O)OP(=O)(O)OC[C@H]3O[C@@H](n4cnc5c(N)ncnc54)[C@H](O)[C@@H]3O)[C@@H](O)[C@H]2O)c1 [NAD^+]
HPLC product assay, 45 min (OiTyrA (OiTyrAa)): strongly preferred NAD^+ over NADP^+ cofactor

MhTyrA (MhTyrAp) (Methanothrix harundinacea; Q227E)
Km [1]: 3290 ± 220 µM
kcat [1]: 0.704 ± 0.03 s⁻¹
kcat/Km [1]: 213 ± 50 M⁻¹ s⁻¹
Km [2, 5]: 2669 ± 320 µM
kcat [2, 5]: 0.285 ± 0.02 s⁻¹
kcat/Km [2, 5]: 107 ± 40 M⁻¹ s⁻¹

N[C@@H](CC1(C(=O)O)C=CC(O)C=C1)C(=O)O (some centres unmarked) [arogenate]
HPLC product assay, 45 min (OiTyrA (OiTyrAa)): E. coli cell lysate expressing OiTyrA had ADH but not PDH activity

MhTyrA (MhTyrAp) (Methanothrix harundinacea)
Km ([2]; 0.8 mM NADP+): 378 ± 20 µM
kcat ([2]; 0.8 mM NADP+): 2.44 ± 0.38 s⁻¹
kcat/Km ([2]; 0.8 mM NADP+): 6440 ± 540 M⁻¹ s⁻¹

B1: SsTyrA (SsTyrAa) (Sediminispirochaeta smaragdinae DSM 11293) (protein)
chain: MVEHTVGIYGLGRFGSFWAKSLAASGLKVIGYNRSKRALPEGVVSGSETEVLSCNTLFYCVAISSFEEVLSRTAAKIGKHTLVFDTCSVKVEPVRTMERLLPQGCTFAGSHPMFGPDSASEGMDGLPMVLCPGRDDEGKVDFWRHHFSKMGLRVIEITADRHDKEAAYTQGITHVVGRILGELDLHESEIATSGYKRLLQVREQTCNDPLQLFIDLQRYNPYTHGMRMELTSALEQIMTLFAQADLPPDRP
notes: full-length, codon-optimized, N-terminal 6xHis tag (pET28a), E. coli Rosetta2 (DE3), HisTrap purified
Km [3, 6]: 901 ± 150 µM
kcat [3, 6]: 3.44 ± 0.31 s⁻¹
kcat/Km [3, 6]: 4030 ± 1010 M⁻¹ s⁻¹

B2: SsTyrA (SsTyrAa) (Sediminispirochaeta smaragdinae DSM 11293; D208N) (protein)
chain: MVEHTVGIYGLGRFGSFWAKSLAASGLKVIGYNRSKRALPEGVVSGSETEVLSCNTLFYCVAISSFEEVLSRTAAKIGKHTLVFDTCSVKVEPVRTMERLLPQGCTFAGSHPMFGPDSASEGMDGLPMVLCPGRDDEGKVDFWRHHFSKMGLRVIEITADRHDKEAAYTQGITHVVGRILGELDLHESEIATSGYKRLLQVREQTCNNPLQLFIDLQRYNPYTHGMRMELTSALEQIMTLFAQADLPPDRP
notes: as for B1
Km ([3]; 0.8 mM preferred cofactor): 847 ± 160 µM
kcat ([3]; 0.8 mM preferred cofactor): 0.45 ± 0.01 s⁻¹
kcat/Km ([3]; 0.8 mM preferred cofactor): 568 ± 140 M⁻¹ s⁻¹
Km [4]: 1742 ± 630 µM
kcat [4]: 0.863 ± 0.12 s⁻¹
kcat/Km [4]: 587 ± 400 M⁻¹ s⁻¹

— paper PMC5681985, “Conserved Molecular Mechanism of TyrA Dehydrogenase Substrate Specificity Underlying Alternative Tyrosine Biosynthetic Pathways in Plants and Microbes” (Frontiers in Molecular Biosciences, 2017)
